Experimental data taken from patent US20130251640.

What was measured:
[1] = test system: T1, substrate a, Mca-Gly-Ser-Pro-Ala-Phe**Leu-Ala-Lys(Dnp)-DArg-CONH2
T1 sequence: GSPAFLAKR

[2] = test system: T2, substrate d, Mca-Ala-Gly-Phe-Ser-Leu**Gly-Pro-Lys(Dnp)-DArg-CONH2
T2 sequence: AGFSLGPKR

[3] = test system: T3, substrate c, Mca-Gly-Pro-Ile-Leu-Phe**Phe-Arg-Leu-Lys(Dnp)-DArg-CONH2
T3 sequence: GPILFFRLKR

[4] = test system: T4, substrate e, Mca-Ala-Gly-Phe-Ser-Leu**Pro-Ala-Lys(Dnp)-D-Arg-CONH2
T4 sequence: AGFSLPAKR

[5] = test system: T5, substrate b, Mca-Gly-Pro-Ile-Leu-Phe**Phe-Arg-Leu-Gly-Lys(Dnp)-DArg-CONH2
T5 sequence: GPILFFRLGKR

| Substance | fluorescence intensity on hydrolysis (FRET substrate) [1] | fluorescence intensity on hydrolysis (FRET substrate) [2] | fluorescence intensity on hydrolysis (FRET substrate) [3] | Kcat/Km [4] | fluorescence intensity on hydrolysis (FRET substrate) [4] | fluorescence intensity on hydrolysis (FRET substrate) [5] | Kcat [4] [S^-1] | Km [4] [µM] | Vmax [4] [µM S^-1] |
| --- | --- | --- | --- | --- | --- | --- | --- | --- | --- |
| Cathepsin D (purchased from Calbiochem, EMD Bioscience) | such leading increase in fluorescence signal with Cath E was observed as well upon incubation with Cath D | both substrates d and e exhibited similar slow hydrolysis by Cath D | Compared to substrate b, substrate c shows superior increase in the fluorescence intensity upon hydrolysis by both Cath E and Cath D | NM^a | both substrates d and e exhibited similar slow hydrolysis by Cath D | Compared to substrate b, substrate c shows superior increase in the fluorescence intensity upon hydrolysis by both Cath E and Cath D |  |  |  |
| Cathepsin E (purchased from Calbiochem, EMD Bioscience) | A prominent fluorescence increase of substrate a was observed instantaneously upon incubation with Cath E | substrate d showed relatively slow hydrolysis and did not reach saturation within the monitored period | Compared to substrate b, substrate c shows superior increase in the fluorescence intensity upon hydrolysis by both Cath E and Cath D | 16.7 | substrate e was activated by Cath E quickly and reached saturation within 10 minutes | Compared to substrate b, substrate c shows superior increase in the fluorescence intensity upon hydrolysis by both Cath E and Cath D | 322 | 19.4 | 2.2 |
